Measurements published in FireProtDB (doi:10.1016/j.jmb.2009.04.075).
Several values for one entry are separate records, joined by “and”; a condition that tells them apart may be missing. Equal entries are not always repeated.

Details: Saccharomyces cerevisiae (strain ATCC 204508 / S288c); pH 7; 25 °C; GdnHCl; CD; Tris 20 mM; NaCl 40 mM; reversible: Yes

Chain of Cytochrome c isoform 1 wild type, P00044 (P00044 whole entry, canonical isoform): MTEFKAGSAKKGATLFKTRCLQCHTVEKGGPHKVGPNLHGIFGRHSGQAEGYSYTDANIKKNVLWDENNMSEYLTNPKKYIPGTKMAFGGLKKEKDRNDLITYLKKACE

For “Cytochrome c isoform 1 wild type, P00044”, the “denaturant midpoint (higher = more stable)” value was 0.49 M and 0.45 M.
